The record followed here is publication PMC12813979, “A Site-Specific Self-Association of a Protein Hub Drives Its Phase Separation” (ACS Chemical Biology, 2025).

Experiment [1] has as its target N-terminus truncated WDR5, WDR5 23-334 (human, UniProt P61964 23-334). Description: BLI; biotinylated MLL3Win peptide immobilised on streptavidin sensors; WDR5 (0.11-9.0 µM) or ΔN-WDR5 (0.10-9.0 µM) in the wells; 150 mM KCl, 20 mM Tris-HCl, 1 mM TCEP, 1 mg/mL BSA, pH 7.5; global fit of kon and koff, KD derived indirectly from them; triplicates. The following applies: both partners purified. A general note: In BLI a coated tip is dipped into the sample, and binding shifts an interference pattern.

Experiment [2] concerns the target WD40 repeat protein 5 (WDR5), full-length (human, UniProt P61964 1-334). The description is as above. The settings on record: both partners purified.

* marks the point of attachment. Biotin = O=C1N[C@H]2[C@H](CS[C@H]2CCCCC(=O)*)N1

B1: Win-like motif-based peptide ligand of mixed lineage leukemia 3 (MLL3Win) (peptide)
chain: Biotin-VNPTGCARSEPKMS-NH2
SMILES: CSCC[C@H](NC(=O)[C@H](CCCCN)NC(=O)[C@@H]1CCCN1C(=O)[C@H](CCC(=O)O)NC(=O)[C@H](CO)NC(=O)[C@H](CCCNC(=N)N)NC(=O)[C@H](C)NC(=O)[C@H](CS)NC(=O)CNC(=O)[C@@H](NC(=O)[C@@H]1CCCN1C(=O)[C@H](CC(N)=O)NC(=O)[C@@H](NC(=O)CCCC[C@@H]1SC[C@@H]2NC(=O)N[C@@H]21)C(C)C)[C@@H](C)O)C(=O)N[C@@H](CO)C(N)=O
Turning to B1, in experiment [1], the Kd (commonly the equilibrium constant for the complex coming apart) came to 170 nM; the dissociation rate constant (koff) (in general, the rate constant with which the complex falls apart) amounted to 0.0097 s⁻¹; the kon (in general, the second-order rate constant of association) worked out at 63000 M⁻¹ s⁻¹. For the same molecule, in experiment [2], the Kd turned out to be 190 nM, the koff came to 0.012 s⁻¹ and the on-rate (kon) came out at 66000 M⁻¹ s⁻¹.
